The values that follow come from paper PMC6146688.

In assay [1] the target is LacI-mCherry-E1A(140–189) (human adenovirus 2) (UniProt P03254).
For assay [2], the target named is LacI-mCherry-E1A(121–223) (human adenovirus 2) (UniProt P03254). Nature of the assay: recruitment to a lacO array (colocalisation of a YFP fusion with a LacI-tethered fusion, confocal microscopy); CHO-A03.1 cells with ~10,000 integrated lacO sites, cotransfected with 2 ug LacI-CFP-E1A or LacI-mCherry-E1A vector and 2 ug YFP-MED6, YFP-MED23 or YFP-p300 vector; fixed after 48 h; score = % of scored cells with colocalisation.

Assay [3] concerns the target LacI-mCherry-E1A(133–178) (human adenovirus 2) (UniProt P03254). Described as above.
Assay [4] concerns the target LacI-mCherry-E1A(133–189) (human adenovirus 2) (UniProt P03254). Described as above.
Assay [5] concerns the target LacI-mCherry-E1A(133–205) (human adenovirus 2) (UniProt P03254). The assay is described as above.
The target of assay [6] is LacI-mCherry-E1A(140–205) (human adenovirus 2) (UniProt P03254). The assay is described as above.

Turning to YFP-p300, Q09472 1-2414, the luciferase reporter with eight lacO sites upstream of the E1B promoter, transient transfection of CHO-K1 cells; activity relative to LacI-mCherry-E1A(121–223) in assay [1] turned out to be 10%. Also, the colocalization score (% of cells) amounted to 86% in assay [2]; 64% in assay [3]; 86% in assay [4]; 73% in assay [5]; 64% in assay [6].
